± gives the standard deviation.
Assay: protein stability index of a GFP-peptide fusion (GPS, HEK-293T) (PSI 1-6); higher = more stable
[1] = treatment: DMSO, c terminus: a fixed tail appended
[2] = treatment: MLN4924 1 uM, 8 h, c terminus: a fixed tail appended
[3] = treatment: DMSO, c terminus: native
[4] = treatment: MLN4924 1 uM, 8 h, c terminus: native
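Note: 24-mer peptide tiles fused after GFP, lentivirally expressed, FACS-sorted into six equal bins by GFP/DsRed ratio, decoded by Illumina sequencing, PSI is the read-weighted mean bin number.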

| Sequence | protein stability index [1] | protein stability index [2] | protein stability index [3] | protein stability index [4] |
| --- | --- | --- | --- | --- |
| PKYQLFVPQLVTGRCATRAFHRKS [RNF180] | 2.14 ± 0.34 | 2.21 ± 0.28 |  |  |
| PLELLPGGPARPLGPGPAAPRLLK [CEBPD] | 4.33 ± 0.12 | 4.54 ± 0.14 |  |  |
| PLLLRLPRICQRNLMSLLMAVRPS [FANCE] | 2.45 ± 0.34 | 2.56 ± 0.062 |  |  |
| PLLSPLLASRNPCPWHYLHLSGSH [RSPH3] | 2.15 ± 0.23 | 2.01 ± 0.2 |  |  |
| PLMKPHRPWADTCSSSGKDGNLCL [HESX1] | 2.74 ± 0.16 | 2.69 ± 0.21 |  |  |
| PLPAAAVVHVSFPEVTSALLESLN [ZBTB22] | 2.41 ± 0.25 | 2.27 ± 0.26 |  |  |
| PNLASDSDLSRRSSSTMSKSEYME [KCNA1] | 5.16 ± 0.27 | 5.22 ± 0.16 |  |  |
| PNLVNLIEVFRRKRKMHLVFEYCD [CDKL4] | 2.06 ± 0.64 | 2.07 ± 0.3 |  |  |
| PNRVLAPEQSLKKTKTSEYPIIFV [SPANXN3] | 2.22 ± 0.17 | 2.12 ± 0.34 |  |  |
| PNTLYEGGYFKAHIKFPIDYPYSP [UBE2R2] | 2.26 ± 0.13 | 2.21 ± 0.27 |  |  |
| PNYTMEGERPEEGVAGGLNRNQGL [TCF25] | 5.22 ± 0.15 | 5.22 ± 0.37 |  |  |
| PPEPLSQVSMWDQRWQDHQPLLPI [APBB1IP] | 2.76 ± 0.75 | 3.72 ± 1.1 |  |  |
| PPITEVESQVFSEKLATDTSTFEA [ZNF232] | 5.33 ± 0.2 | 5.26 ± 0.083 |  |  |
| PPPPPPHNSGPPPPPARGRGAPPP [WASL] | 5.14 ± 0.2 | 5.19 ± 0.16 |  |  |
| PPRGRSEAPDSLNGPLGPSEASIA [SMG5] | 5.07 ± 0.27 | 5.12 ± 0.14 |  |  |
| PPVLSFRLVHTTAIEHFQPNADLL [FCHO1] | 2.54 ± 0.15 | 2.17 ± 0.25 |  |  |
| PQAPPASRDEAALPELLLGALPVG [RETREG3] | 4.64 ± 0.087 | 4.67 ± 0.16 |  |  |
| PQDRYKAVWLIFFMLGLGTLLPWN [SLC29A1] | 3 ± 0.27 | 3.29 ± 0.37 |  |  |
| PQEKLWQQLRRGRYVEFNLLYDRG [CPOX] | 2.56 ± 0.11 | 2.55 ± 0.42 |  |  |
| PQGLFRGGKSGELEQEEERLSKEW [CHGA] | 5.19 ± 0.39 | 5.42 ± 0.19 |  |  |
| PRETLCTELVLSDCMLSEEGATLL [LRRC45] | 3.65 ± 0.2 | 3.83 ± 0.11 |  |  |
| PRMCRYVRERDRLGNEYPKLHYPE [CDC25A] | 3.08 ± 0.12 | 3.15 ± 0.34 |  |  |
| PRQADHDDHECCERVVINISGLRF [KCNA1] | 3.1 ± 0.086 | 3.33 ± 0.27 |  |  |

| Sequence | protein stability index [1] | protein stability index [2] | protein stability index [3] | protein stability index [4] |
| --- | --- | --- | --- | --- |
| PSLAVNLADPYRSLKAPGARGPGP [JUNB] | 4.01 ± 0.29 | 3.83 ± 0.17 |  |  |
| PSLQHLCRMSIRRVMPTQEVQELP [WSB1] | 3.34 ± 0.43 | 2.8 ± 0.35 |  |  |
| PSPPPGSHYTSPSENMWNTGSTYN [CARM1] | 3.8 ± 0.43 | 3.81 ± 0.23 |  |  |
| PSWNGSLKQLLTETDVWFSKQRKD [GMCL1] | 3.27 ± 0.049 | 3.29 ± 0.43 |  |  |
| PTICMAYLMKTKQFRLKEAFDYIK [DUSP5] | 2.27 ± 0.47 | 2.54 ± 0.31 |  |  |
| PTTGYRRLLRFSSQIHNNGQSDFR [LOXL2] | 3.03 ± 0.37 | 3.22 ± 0.31 |  |  |
| PVAAATAAEGEGSPPAVAAVAGPP [ANKRD17] | 5.54 ± 0.19 | 5.54 ± 0.094 |  |  |
| PVEEPEPKPDRLLVLKVLWNDFLM [SLC19A2] | 2.21 ± 0.2 | 2.17 ± 0.19 |  |  |
| PVELYTAFQHTPTSITLTASRVSK [KMT2E] | 3.63 ± 0.095 | 3.71 ± 0.13 |  |  |
| PVSKPGALRRSLSRSMSQEAQRG [TCAP] |  |  | 3.19 ± 0.23 | 3.2 ± 0.37 |
| PWKEETFLVLQSLLERQVEMTPEK [FANCE] | 3 ± 0.22 | 3.08 ± 0.27 |  |  |
| QAGGEGAGGELGISLNMCLLGALV [PBXIP1] | 2.92 ± 0.65 | 2.23 ± 0.33 |  |  |
| QALRQMNEGAIDCVNYEGQSAYDV [DLC1] | 4.41 ± 0.22 | 4.39 ± 0.1 |  |  |
| QDGVSCLNIVERYDPKENKWTRVA [KLHL20] | 3.98 ± 0.28 | 4.08 ± 0.21 |  |  |
| QDSPGPHEALSRLWELCHLWLRPE [ZNF396] | 2.33 ± 0.14 | 2.15 ± 0.079 |  |  |
| QFSLMLCAFVGALGGAAFLGTAIF [SPNS1] | 2.81 ± 0.47 | 2.47 ± 0.41 |  |  |
| QHLKYKEHPEALSCLLLQLRREKP [INTS3] | 2.68 ± 0.16 | 3 ± 0.32 |  |  |
| QILLEWCRSKTLGYQHVDLQNFSS [SMTNL2] | 2.72 ± 0.56 | 2.49 ± 0.43 |  |  |
| QIQRISLNTLTLNVKSEKVYTRHG [FLOT1] | 2.6 ± 0.14 | 3.01 ± 0.25 |  |  |
| QKDLIMKVENLTLKNHFQSVLEQL [TAF7L] | 2.66 ± 0.2 | 2.4 ± 0.29 |  |  |
| QKITAIITFPSLESCEEKNQLILT [WDR41] | 2.29 ± 0.16 | 2.22 ± 0.26 |  |  |
| QKRQQLSEDTLTIHGLPTEGYQAL [C22orf31] | 3.91 ± 0.12 | 3.92 ± 0.096 |  |  |
| QKVATLEKRNRQLRERVKKVKRSL [CCDC3] | 4.08 ± 0.2 | 4.89 ± 0.11 |  |  |

| Sequence | protein stability index [1] | protein stability index [2] | protein stability index [3] | protein stability index [4] |
| --- | --- | --- | --- | --- |
| QLDIASQSLDQEILLKVKTEIEEE [BCL2L13] | 5.21 ± 0.37 | 5.09 ± 0.21 |  |  |
| QLLSERFGRGSRTVDLELELQIEL [ARFIP2] | 2.58 ± 0.46 | 2.99 ± 0.94 |  |  |
| QLQVESNSSQLLLRRHAGLLDGLA [SCARA5] | 2.68 ± 0.26 | 2.9 ± 0.17 |  |  |
| QLSPSPTPASQSPKKPPAKDPLAD [SNAP91] | 5.49 ± 0.26 | 5.53 ± 0.29 |  |  |
| QLSRDSTLGGKAFHITNDEPIPFW [NSDHL] | 2.89 ± 0.18 | 3.07 ± 0.55 |  |  |
| QLTKASLKPRGCSKPPWRPPGGKL [SPACA9] | 2.83 ± 0.29 | 2.92 ± 0.079 |  |  |
| QLTKELPLSPAFFGEDGIFRHDRL [PBXIP1] | 3.07 ± 0.19 | 3.01 ± 0.33 |  |  |
| QNPPVIKSSGRFLWIKFFAAGELE [NETO1] | 2.57 ± 0.53 | 2.11 ± 0.19 |  |  |
| QPGLLHLQSCGDLHTFTPAGRPRA [FAM189A2] | 5.66 ± 0.44 | 5.53 ± 0.18 |  |  |
| QPILQIDNARLAADDFRTKYEHEL [KRT16] | 4.6 ± 0.2 | 4.31 ± 0.45 |  |  |
| QPKCDNTARAHPAKARDLYKGRQL [SMOC2] | 4.26 ± 0.17 | 4.35 ± 0.19 |  |  |
| QPLADEGPPGRSIGGAAPSLGALD [SERTAD1] | 5.19 ± 0.24 | 5.32 ± 0.15 |  |  |
| QPQDRNQALGTHRPVNKLAELQCE [RASAL3] | 4.77 ± 0.37 | 4.88 ± 0.25 |  |  |
| QQAALPRLSRRMASQHSYPLNRFS [CBY2] | 3.38 ± 0.31 | 3.45 ± 0.31 |  |  |
| QQKKDLEILHQQNIHQLQNRLSEL [SASS6] | 3.96 ± 0.21 | 4.13 ± 0.2 |  |  |
| QQQHVSCQVFPERLAQGNPQQGFF [ATP23] | 3.5 ± 0.34 | 3.28 ± 0.39 |  |  |
| QQTPVGTPKDKRVSNTPLRTVDGS [PALM] | 5.07 ± 0.13 | 5.03 ± 0.15 |  |  |
| QQVCQWLLWATNEFSLVNVNLQRF [ETS2] | 3.01 ± 0.23 | 2.94 ± 0.42 |  |  |
| QRELEIPEQQVDMHDMLLEELAPV [ZNF449] | 5.22 ± 0.26 | 5.12 ± 0.21 |  |  |
| QRIHAAERLCMGVDCTEIFGGNPR [ZNF263] | 3.36 ± 0.27 | 3.38 ± 0.31 |  |  |
| QRINTYVFVGNQLIPQPLDSEEDE [PCMTD1] | 4.32 ± 0.25 | 4.37 ± 0.15 |  |  |
| QRITKQLEKWMQKNVEENLYSSSL [GLT8D2] | 2.89 ± 0.28 | 3.03 ± 0.21 |  |  |
| QRMRVPEKLKVAPPNADLEQGFQE [MFF] | 4.82 ± 0.19 | 4.74 ± 0.092 |  |  |

| Sequence | protein stability index [1] | protein stability index [2] | protein stability index [3] | protein stability index [4] |
| --- | --- | --- | --- | --- |
| QSPGQPVQGGSEAWGPGTLAAAPE [TEX19] | 5.08 ± 0.37 | 5.11 ± 0.24 |  |  |
| QSSNLFRHQRRHNAEKLLNVVKV [ZNF24] |  |  | 1.84 ± 0.38 | 2.11 ± 0.26 |
| QTLDKKLMSDLRRKRTAHERAKEL [INTS4] | 4.22 ± 0.27 | 4.26 ± 0.25 |  |  |
| QVAMRCRCSSMHFLVAEWNEPSIN [SAT1] | 2.23 ± 0.53 | 2.27 ± 0.2 |  |  |
| QVLIKHSADVNARDKNWQTPLHVA [ANKRD44] | 3.15 ± 0.34 | 3.01 ± 0.32 |  |  |
| QWGAEPEGSCYQTFRQYCGAACTC [RNF208] | 3 ± 0.47 | 3.06 ± 0.34 |  |  |
| RAFVSIQEEMAEDPLTYKSRLMVV [RHOBTB2] | 2.74 ± 0.39 | 2.18 ± 0.4 |  |  |
| RALKFRERDALEAVFRFWAGGEKG [DNAAF3] | 2.32 ± 0.07 | 2.59 ± 0.43 |  |  |
| RARLDSMVLLIMKLDQLDQDIENA [DLC1] | 2.47 ± 0.22 | 2.4 ± 0.39 |  |  |
| RATNHLDQVPSMQDGSESFFFRHG [SPAG8] | 3.51 ± 0.1 | 3.62 ± 0.28 |  |  |
| RCACAASSDESPGSKCSPEDLATA [TTC32] | 3.83 ± 0.49 | 4.08 ± 0.23 |  |  |
| RCPSSSLHMSQRERTWPPPAMSPY [C22orf15] | 2.89 ± 0.3 | 2.9 ± 0.27 |  |  |
| RCSSMHFLVAEWNEPSINFYKRRG [SAT1] | 2.86 ± 0.33 | 2.42 ± 0.28 |  |  |
| RDVVLCSLLNFLPEGVNKLKISPV [TENT5C] | 2.2 ± 0.44 | 2.02 ± 0.43 |  |  |
| REEEKTFWKKYRTFWKEDKAFWKE [CCDC70] | 2.57 ± 0.2 | 2.75 ± 0.22 |  |  |
| RELGVWRSLLRLRATRAGAAEEPG [C2CD2L] | 3.15 ± 0.24 | 3.27 ± 0.33 |  |  |
| RELKAKLSGVEEELQRTKQEVLSL [SASS6] | 4.47 ± 0.41 | 4.46 ± 0.22 |  |  |
| RFEEPKGPPARQEDSKELRALRKM [CBY2] | 4.91 ± 0.43 | 4.99 ± 0.2 |  |  |
| RFFLGDLCSRQDLYPALKGVNTVF [NSDHL] | 2.19 ± 0.26 | 2.14 ± 0.54 |  |  |
| RFGVRPKVTGYLISYSSMLGAVAG [MFSD9] | 2.58 ± 0.54 | 2.29 ± 0.31 |  |  |

From the supplement of paper PMC10567573
